# Ends that are not written are not given here.
# T1: ApoC3 peptide … T44F (human, not fully specified (bridges); also: cyclic constrained)
# T1 peptide: ARGWVFDGFSSLK
# T2: ApoC3 peptide … T44C (human, not fully specified (bridges); also: cyclic constrained)
# T2 peptide: ARGWVCDGFSSLK
# T3: ApoC3 peptide … A39Y (human, not fully specified (bridges); also: cyclic constrained)
# T3 peptide: YRGWVTDGFSSLK
# T4: ApoC3 peptide … A39W (human, not fully specified (bridges); also: cyclic constrained)
# T4 peptide: WRGWVTDGFSSLK
# T5: ApoC3 peptide … L50S (human, not fully specified (bridges); also: cyclic constrained)
# T5 peptide: ARGWVTDGFSSSK
# T6: ApoC3 peptide … F47A (human, not fully specified (bridges); also: cyclic constrained)
# T6 peptide: ARGWVTDGASSLK
# T7: ApoC3 peptide … A39N (human, cyclic constrained)
# T7 peptide: NRGWVTDGFSSLK
# T8: ApoC3 peptide … A39I (human, cyclic constrained)
# T8 peptide: IRGWVTDGFSSLK
# T9: ApoC3 peptide … V43K (human, not fully specified; cyclic constrained)
# T9 peptide: ARGWKTDGFSSLK
# T10: ApoC3 peptide … F47S (human, also: cyclic constrained)
# T10 peptide: ARGWVTDGSSSLK
# T11: ApoC3 peptide … G41A (human, also: cyclic constrained)
# T11 peptide: ARAWVTDGFSSLK
# T12: ApoC3 peptide … K51R (human, not fully specified; cyclic constrained)
# T12 peptide: ARGWVTDGFSSLR
# T13: ApoC3 peptide … K51W (human, not fully specified; cyclic constrained)
# T13 peptide: ARGWVTDGFSSLW
# T14: ApoC3 peptide … G46I (human, not fully specified (bridges); also: cyclic constrained)
# T14 peptide: ARGWVTDIFSSLK
# T15: ApoC3 peptide … R40M (human, not fully specified (bridges); also: cyclic constrained)
# T15 peptide: AMGWVTDGFSSLK
# T16: ApoC3 peptide … D45H (human, cyclic constrained)
# T16 peptide: ARGWVTHGFSSLK
# T17: ApoC3 peptide … L50F (human, not fully specified; cyclic constrained)
# T17 peptide: ARGWVTDGFSSFK
# T18: ApoC3 peptide … S49H (human, cyclic constrained)
# T18 peptide: ARGWVTDGFSHLK
# T19: ApoC3 peptide … A39T (human, not fully specified (bridges); also: cyclic constrained)
# T19 peptide: TRGWVTDGFSSLK
# T20: ApoC3 peptide … T44K (human, not fully specified (bridges); also: cyclic constrained)
# T20 peptide: ARGWVKDGFSSLK
# T21: ApoC3 peptide … V43D (human, not fully specified; cyclic constrained)
# T21 peptide: ARGWDTDGFSSLK
# T22: ApoC3 peptide … R40L (human, not fully specified (bridges); also: cyclic constrained)
# T22 peptide: ALGWVTDGFSSLK
# T23: ApoC3 peptide … S49P (human, cyclic constrained)
# T23 peptide: ARGWVTDGFSPLK
# T24: ApoC3 peptide … V43P (human, not fully specified (bridges); also: cyclic constrained)
# T24 peptide: ARGWPTDGFSSLK
# T25: ApoC3 peptide … S48L (human, not fully specified (bridges); also: cyclic constrained)
# T25 peptide: ARGWVTDGFLSLK
# T26: ApoC3 peptide … L50M (human, not fully specified; cyclic constrained)
# T26 peptide: ARGWVTDGFSSMK
# T27: ApoC3 peptide … W42I (human, not fully specified (bridges); also: cyclic constrained)
# T27 peptide: ARGIVTDGFSSLK
# T28: ApoC3 peptide … D45G (human, not fully specified (bridges); also: cyclic constrained)
# T28 peptide: ARGWVTGGFSSLK
# T29: ApoC3 peptide … A39G (human, cyclic constrained)
# T29 peptide: GRGWVTDGFSSLK
# T30: ApoC3 peptide … F47D (human, not fully specified (bridges); also: cyclic constrained)
# T30 peptide: ARGWVTDGDSSLK
# What was measured:
# Assay in all cases: peptide microarray
# ApoC3 peptide … T44F = molecular target: T1, ApoC3 peptide … T44F
# Description: (§1) Amino acids G41 and G46 were highly conserved; substitution of G41 by E, N or Q caused a decrease of spot intensities by ˜70% or higher, whereas exchange of G46 by N was hardly tolerated and resulting in 90% reduced spot intensities. […] Amino acid positions V43, D45 and K51 were also well conserved with a clear preference for the wild type amino acids and a certain tolerance particularly for conservative exchanges by Y, F and I (V43), A, E and K (D45) as well as by R (K51). […] Replacement of V43 by Y, however, increased spot intensity by two fold. Amino acid positions W42 and 48S were poorly conserved or even variable; both positions were susceptible for only a number of amino acid exchanges, and exchange by F, S and T (W42) or by E (S48) even caused a two- to three-fold increase of spot intensity. Amino acid positions A39 and R40 were variable.
# (§2) Pre: staining of one of the ApoC3 peptide microarrays was done with the secondary antibody goat anti-human IgG (Fe) DyLight680 (1:5000) and control antibody mouse monoclonal anti-HA (12CA5) DyLight800 (1:2000) to investigate background interactions of the secondary antibody with the antigen-derived peptides that could interfere with the main assays. Subsequent incubation of other ApoC3 peptide microarrays with antibody samples was followed by staining with secondary and control antibodies as well as read-out at scanning intensities of 7/7 (red/green). The additional HA peptides framing the peptide arrays were stained as internal quality control to confirm the assay quality and the peptide microarray integrity.
# ApoC3 peptide … T44C = molecular target: T2, ApoC3 peptide … T44C
# Description: as §1, §2
# ApoC3 peptide … A39Y = molecular target: T3, ApoC3 peptide … A39Y
# Description: as §1, §2
# ApoC3 peptide … A39W = molecular target: T4, ApoC3 peptide … A39W
# Description: as §1, §2
# ApoC3 peptide … L50S = molecular target: T5, ApoC3 peptide … L50S
# Description: as §1, §2
# ApoC3 peptide … F47A = molecular target: T6, ApoC3 peptide … F47A
# Description: as §1, §2
# ApoC3 peptide … A39N = molecular target: T7, ApoC3 peptide … A39N
# Description: as §1, §2
# ApoC3 peptide … A39I = molecular target: T8, ApoC3 peptide … A39I
# Description: as §1, §2
# ApoC3 peptide … V43K = molecular target: T9, ApoC3 peptide … V43K
# Description: as §1, §2
# ApoC3 peptide … F47S = molecular target: T10, ApoC3 peptide … F47S
# Description: as §1, §2
# ApoC3 peptide … G41A = molecular target: T11, ApoC3 peptide … G41A
# Description: as §1, §2
# ApoC3 peptide … K51R = molecular target: T12, ApoC3 peptide … K51R
# Description: as §1, §2
# ApoC3 peptide … K51W = molecular target: T13, ApoC3 peptide … K51W
# Description: as §1, §2
# ApoC3 peptide … G46I = molecular target: T14, ApoC3 peptide … G46I
# Description: as §1, §2
# ApoC3 peptide … R40M = molecular target: T15, ApoC3 peptide … R40M
# Description: as §1, §2
# ApoC3 peptide … D45H = molecular target: T16, ApoC3 peptide … D45H
# Description: as §1, §2
# ApoC3 peptide … L50F = molecular target: T17, ApoC3 peptide … L50F
# Description: as §1, §2
# ApoC3 peptide … S49H = molecular target: T18, ApoC3 peptide … S49H
# Description: as §1, §2
# ApoC3 peptide … A39T = molecular target: T19, ApoC3 peptide … A39T
# Description: as §1, §2
# ApoC3 peptide … S48K = ApoC3 peptide … S48K (human, cyclic constrained)
# Description: as §1, §2
# ApoC3 peptide … T44K = molecular target: T20, ApoC3 peptide … T44K
# Description: as §1, §2
# ApoC3 peptide … V43D = molecular target: T21, ApoC3 peptide … V43D
# Description: as §1, §2
# ApoC3 peptide … R40L = molecular target: T22, ApoC3 peptide … R40L
# Description: as §1, §2
# ApoC3 peptide … S49P = molecular target: T23, ApoC3 peptide … S49P
# Description: as §1, §2
# ApoC3 peptide … V43P = molecular target: T24, ApoC3 peptide … V43P
# Description: as §1, §2
# ApoC3 peptide … S48L = molecular target: T25, ApoC3 peptide … S48L
# Description: as §1, §2
# ApoC3 peptide … L50M = molecular target: T26, ApoC3 peptide … L50M
# Description: as §1, §2
# ApoC3 peptide … W42I = molecular target: T27, ApoC3 peptide … W42I
# Description: as §1, §2
# ApoC3 peptide … D45G = molecular target: T28, ApoC3 peptide … D45G
# Description: as §1, §2
# ApoC3 peptide … A39G = molecular target: T29, ApoC3 peptide … A39G
# Description: as §1, §2
# ApoC3 peptide … F47D = molecular target: T30, ApoC3 peptide … F47D
# Description: as §1, §2
binder,measurement,setting,value
"anti-ApoC3 antibody 14C7 (antibody, V domains shown, it was detected with goat anti-human IgG (Fc); also called mAb 14C7; llama antibody 14C7) VH: QVQVQESGPGLVKPSQTLSLTCTVSGGSITTNSYYWSWIRQPPGKGLEWMGAIDYSGDTYYSPSLKSRTSISRDTSKNQFTLQLTSVTPEDTAVYYCVSRIPTGEYWGQGTQVTVSS VL: QTVVTQEPSLSVSPGGTVTLTCGLNSGSVTSSNYPDWYQQTPGQAPRLLIYNTNSRHSGVPSRFSGSISGNKAALTITGAQPEDEADYYCALYMGSDSVVFGGGTHLTVL",% of binding to wild-type peptide,ApoC3 peptide … T44F,0%
same,% of binding to wild-type peptide,ApoC3 peptide … T44C,0%
same,% of binding to wild-type peptide,ApoC3 peptide … A39Y,40.5%
same,% of binding to wild-type peptide,ApoC3 peptide … A39W,59.4%
same,% of binding to wild-type peptide,ApoC3 peptide … L50S,0%
same,% of binding to wild-type peptide,ApoC3 peptide … F47A,0%
same,% of binding to wild-type peptide,ApoC3 peptide … A39N,103%
same,% of binding to wild-type peptide,ApoC3 peptide … A39I,52.3%
same,% of binding to wild-type peptide,ApoC3 peptide … V43K,25.4%
same,% of binding to wild-type peptide,ApoC3 peptide … F47S,0%
same,% of binding to wild-type peptide,ApoC3 peptide … G41A,7.01%
same,% of binding to wild-type peptide,ApoC3 peptide … K51R,57.4%
same,% of binding to wild-type peptide,ApoC3 peptide … K51W,0%
same,% of binding to wild-type peptide,ApoC3 peptide … G46I,0%
same,% of binding to wild-type peptide,ApoC3 peptide … R40M,69.6%
same,% of binding to wild-type peptide,ApoC3 peptide … D45H,1.81%
same,% of binding to wild-type peptide,ApoC3 peptide … L50F,56.6%
same,% of binding to wild-type peptide,ApoC3 peptide … S49H,0.56%
same,% of binding to wild-type peptide,ApoC3 peptide … A39T,88.7%
same,% of binding to wild-type peptide,ApoC3 peptide … S48K,90%
same,% of binding to wild-type peptide,ApoC3 peptide … T44K,0%
same,% of binding to wild-type peptide,ApoC3 peptide … V43D,0%
same,% of binding to wild-type peptide,ApoC3 peptide … R40L,54.2%
same,% of binding to wild-type peptide,ApoC3 peptide … S49P,0%
same,% of binding to wild-type peptide,ApoC3 peptide … V43P,1.86%
same,% of binding to wild-type peptide,ApoC3 peptide … S48L,19.6%
same,% of binding to wild-type peptide,ApoC3 peptide … L50M,0.65%
same,% of binding to wild-type peptide,ApoC3 peptide … W42I,27.9%
same,% of binding to wild-type peptide,ApoC3 peptide … D45G,2.16%
same,% of binding to wild-type peptide,ApoC3 peptide … A39G,93%
same,% of binding to wild-type peptide,ApoC3 peptide … F47D,0%
